The record followed here is patent US20180002445A1 (published 2018).

The target in experiment [1] is T1, membranous catalase of human tumor cells (MKN-45 gastric carcinoma, SHEP neuroblastoma) (human, UniProt P04040 2-527).
T1 sequence (looked up): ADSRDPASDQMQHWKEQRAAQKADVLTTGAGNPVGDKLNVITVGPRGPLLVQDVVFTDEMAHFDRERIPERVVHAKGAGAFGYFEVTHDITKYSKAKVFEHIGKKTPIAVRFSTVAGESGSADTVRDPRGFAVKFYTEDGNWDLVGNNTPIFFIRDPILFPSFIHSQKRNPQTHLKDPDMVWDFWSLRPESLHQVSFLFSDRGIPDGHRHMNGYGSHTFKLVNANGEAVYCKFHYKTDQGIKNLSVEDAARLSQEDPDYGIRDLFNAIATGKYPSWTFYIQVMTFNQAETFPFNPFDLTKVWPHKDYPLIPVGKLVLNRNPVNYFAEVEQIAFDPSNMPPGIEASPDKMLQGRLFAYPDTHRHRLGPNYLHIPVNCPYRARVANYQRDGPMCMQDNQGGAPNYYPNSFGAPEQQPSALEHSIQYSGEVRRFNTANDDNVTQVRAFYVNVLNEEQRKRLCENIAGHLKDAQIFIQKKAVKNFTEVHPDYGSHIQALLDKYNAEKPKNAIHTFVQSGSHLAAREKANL
Kind of experiment: cell-based or functional assay.

The target in another experiment is T2, human SOD1 (human, UniProt P00441 2-154).
T2 construct: Target of the ELISA by which the clones were selected; also called Cu/ZnSOD; superoxide dismutase
In words: heading of the sequence table; ELISA selection. For orientation: ELISA stands for enzyme-linked immunosorbent assay.

Experiment [2] concerns the target T3, membranous SOD of human tumor cells (MKN-45 gastric carcinoma, SHEP neuroblastoma) (human, UniProt P00441 2-154). Kind of experiment: cell-based or functional assay.
Another experiment has as its target T4, human catalase (human, UniProt P04040 2-527).
T4 construct: Target of the ELISA by which the clones were selected
T4 sequence (looked up): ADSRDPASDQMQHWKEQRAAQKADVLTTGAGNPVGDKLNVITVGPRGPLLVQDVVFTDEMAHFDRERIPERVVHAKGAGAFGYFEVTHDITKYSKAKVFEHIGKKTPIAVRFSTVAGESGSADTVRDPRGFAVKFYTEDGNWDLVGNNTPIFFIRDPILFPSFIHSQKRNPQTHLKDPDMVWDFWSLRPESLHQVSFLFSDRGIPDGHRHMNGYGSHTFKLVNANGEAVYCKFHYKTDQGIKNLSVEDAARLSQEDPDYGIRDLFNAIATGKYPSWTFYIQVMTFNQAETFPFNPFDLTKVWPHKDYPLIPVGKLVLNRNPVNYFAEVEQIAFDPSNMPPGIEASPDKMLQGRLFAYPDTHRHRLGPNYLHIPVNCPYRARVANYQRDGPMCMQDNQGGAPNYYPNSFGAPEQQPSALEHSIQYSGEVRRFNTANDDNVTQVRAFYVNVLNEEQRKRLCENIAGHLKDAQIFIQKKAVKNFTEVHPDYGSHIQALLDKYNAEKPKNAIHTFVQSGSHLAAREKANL
In words: heading of the sequence table; ELISA selection.

Experiment [3] concerns the target T3, membranous SOD of human tumor cells …. Kind of experiment: cell-based or functional assay. This is another data set of the same source.

T3 sequence (P00441 2-154): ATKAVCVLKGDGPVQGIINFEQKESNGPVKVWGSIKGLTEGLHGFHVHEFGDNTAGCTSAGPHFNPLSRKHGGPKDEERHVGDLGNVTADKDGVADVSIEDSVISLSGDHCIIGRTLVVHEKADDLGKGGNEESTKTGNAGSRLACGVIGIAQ
T2 sequence (P00441 2-154 limits assumed): as the sequence (P00441 2-154) above

B1: aCATcb0972 (VHH)
VHH: QVQLVESGGGLVQAGGSLRLSCAASERTFNTYGMGWFRQAPGKEREFVATISWSGDSTYYADSVKGRFTISRDNAKNTMYLQMNSLKPEDTAVYYCNANSEYGDSYWGQGTQVTVSS
Take B1: in experiment [1], the “relation (molar basis) (against aCATaSOD)” value was found to be 1420 fold and the “relation to opt. conc. hybrid Fab (against aCATaSOD)” value was 708 fold.

B2: aSODcb0987 (VHH)
VHH: QVQLVESGGGIVQPGGSLRLSCVASESISEIDAMYWHRQAPGKERELVAGITNDGTRYYADSVKGRFTISRDNAKSTLYLQMNSLKFEDTAMYYCAALPNPPPGYWGQGTQVTVSS
notes: Recombinant alpaca single domain VHH fragment against human SOD1
As to B2, the binding result with human SOD1 is “binds”.

B3: aSODcb0991 (VHH)
VHH: QVQLVESGGGIVQPGGSLRLSCVASESISDIDAMYWHRQAPGKRRELVAGITNDGTEYFADSVKGRFAISRDNTKSSLYLQMNSLKLEDTAMYYCATLPNPPPGYWGQGTQVTVSS
For B3, in experiment [2], the “concentration required for apoptosis induction in SHEP cells, against the neutralizing single domain VHH fragment” value came out at 1e+06 fold.

B4: aCATcb0975 (VHH)
VHH: QVQLVESGGGLVQPGGSLRLSCAASASIFSIYVMAWYRQAPGKQRELVATVTSGGATNYANSVKGRFTISRDNAKNTMDLQMNSLKPEDTAVYYCNAEDYYDYGLSRSKIYWGQGTQVTVSS
notes: Recombinant alpaca single domain VHH fragment against human catalase
B4: in the experiment with human catalase, the binding result is on record as “binds”.

B5: aSODcb0989 (VHH)
VHH: QVQLVESGGGLVQSGGSLTLSCTASGFTISNYPMTWVRQAPGKGLEWVSRINSGGDRTLYADSVKGRFTVSRDNARNTMYLQMNNLKPEDTGLYFCADSGAGWRYWGQGTQVTVSS
As for B5, in experiment [3], the “relation (molar basis) (against aCATaSOD)” value came out at 2920 fold and the “relation to opt. conc. hybrid Fab (against aCATaSOD)” value turned out to be 1460 fold.

B6: aCATcb0973 (VHH)
VHH: EVQLVESGGGLVQPGGSLRLSCAVSGFIFNTYSMRWGRQAPGKGLEWVSSISTGGYSTYADSVKGRFTISRDNAKNLVYLQMNSLKPEDTAVYYCGWGAFVRGERPQGQGTQVTVSS
notes: as for B4
For the molecule B6, the binding result in the experiment with human catalase is “binds”.

B7: aCATcb0974 (VHH)
VHH: QVQLVESGGGLVQPGGSLRLSCAASGSIFSIASMGWYRQAPGKQRDLVATITSDGSTKYADSVKGRFTISRDNAKNTMYLQMNSVKPEDAAVYYCNADADDLEPGSYDYDYWGQGTQVTVSS
notes: Recombinant alpaca single domain VHH fragment against human catalase; also called aCATcb9074
On to B7, for which, in the experiment with human catalase, the binding result is given as “binds”.
